Tests used:
[1] = biological target: T1, Sac1 (phosphatase domain of yeast Sac1, residues 1-511) (Saccharomyces cerevisiae, UniProt P32368); test: malachite green phosphate release, PI; type: biochemical; conditions: fixed PI(4)P, pH 6.8, room temperature; allosteric activator
T1 sequence (P32368 1-511): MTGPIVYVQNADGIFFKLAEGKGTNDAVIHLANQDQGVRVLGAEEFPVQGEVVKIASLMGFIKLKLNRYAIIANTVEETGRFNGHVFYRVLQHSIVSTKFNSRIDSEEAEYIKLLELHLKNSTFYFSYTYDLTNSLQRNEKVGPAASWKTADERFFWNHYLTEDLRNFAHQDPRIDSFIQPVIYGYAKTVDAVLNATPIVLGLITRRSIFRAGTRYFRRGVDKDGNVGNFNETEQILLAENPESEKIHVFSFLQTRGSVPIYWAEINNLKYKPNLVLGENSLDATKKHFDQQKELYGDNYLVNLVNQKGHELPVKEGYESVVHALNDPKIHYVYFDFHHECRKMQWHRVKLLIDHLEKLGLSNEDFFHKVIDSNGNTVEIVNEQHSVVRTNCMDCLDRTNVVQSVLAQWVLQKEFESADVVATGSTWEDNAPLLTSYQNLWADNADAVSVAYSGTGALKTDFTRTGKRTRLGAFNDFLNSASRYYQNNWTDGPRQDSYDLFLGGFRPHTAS

[2] = biological target: yeast Sac1 phosphatase domain (amino acids 1-511) (yeast) (UniProt P32368); test: AUC
purified protein = substrate: CCCCCCCC(=O)OC[C@H](COP(=O)(O)O[C@H]1[C@H](O)[C@@H](O)[C@H](OP(=O)(O)O)[C@@H](O)[C@H]1O)OC(=O)CCCCCCC; test: purified protein; conditions: no activator; sigmoidal, Hill coefficient 3.6 ± 0.3; buffer as for wild type

CCCCCCCC(=O)OC[C@H](COP(=O)(O)OC[C@H](N)C(=O)O)OC(=O)CCCCCCC [diC8 PS]
activation [1]: Sac1 is strongly activated by phosphatidylserine (PS)

yeast Sac1 phosphatase domain (amino acids 1-511) (from UniProt P32368 1-511) (domain or fragment)
percent of the protein in the dimeric form [2]: 20% | stoichiometry N [2]: 2

B1: Sac1 (phosphatase domain of yeast Sac1, residues 1-511) (Saccharomyces cerevisiae S288C; R207Q) (protein)
chain: MTGPIVYVQNADGIFFKLAEGKGTNDAVIHLANQDQGVRVLGAEEFPVQGEVVKIASLMGFIKLKLNRYAIIANTVEETGRFNGHVFYRVLQHSIVSTKFNSRIDSEEAEYIKLLELHLKNSTFYFSYTYDLTNSLQRNEKVGPAASWKTADERFFWNHYLTEDLRNFAHQDPRIDSFIQPVIYGYAKTVDAVLNATPIVLGLITRQSIFRAGTRYFRRGVDKDGNVGNFNETEQILLAENPESEKIHVFSFLQTRGSVPIYWAEINNLKYKPNLVLGENSLDATKKHFDQQKELYGDNYLVNLVNQKGHELPVKEGYESVVHALNDPKIHYVYFDFHHECRKMQWHRVKLLIDHLEKLGLSNEDFFHKVIDSNGNTVEIVNEQHSVVRTNCMDCLDRTNVVQSVLAQWVLQKEFESADVVATGSTWEDNAPLLTSYQNLWADNADAVSVAYSGTGALKTDFTRTGKRTRLGAFNDFLNSASRYYQNNWTDGPRQDSYDLFLGGFRPHTAS
K0.5 (purified protein): 46 ± 5 µM

— publication PMC3329130 (Biochemistry, 2012)
